From patent publication US20050176123A1 (MORINAGA MILK INDUSTRY, published 2005)

Legend:
Assay in all cases: cell-based or functional assay
[1] = molecular target: cathepsin B
[2] = molecular target: cathepsin L
[3] = molecular target: cathepsin S
[4] = molecular target: T1, papain (UniProt P00784 134-345)
T1 sequence (looked up): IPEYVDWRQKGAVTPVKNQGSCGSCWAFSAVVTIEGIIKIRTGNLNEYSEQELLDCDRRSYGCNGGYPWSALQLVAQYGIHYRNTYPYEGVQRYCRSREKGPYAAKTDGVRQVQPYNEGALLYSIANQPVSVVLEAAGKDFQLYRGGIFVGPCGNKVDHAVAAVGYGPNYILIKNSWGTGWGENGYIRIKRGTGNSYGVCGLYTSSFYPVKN

[5] = molecular target: cathepsin B; remark: listed apart in the source
[6] = molecular target: cathepsin L; remark: listed apart in the source
[7] = molecular target: T1, papain; remark: listed apart in the source

B1: bovine lactoferrin (manufactured by Morinaga Milk Industry Co., Ltd.) (other)
chain: APRKNVRWCTISQPEWFKCRRWQWRMKKLGAPSITCVRRAFALECIRAIAEKKADAVTLDGGMVFEAGRDPYKLRPVAAEIYGTKESPQTHYYAVAVVKKGSNFQLDQLQGRKSCHTGLGRSAGWIIPMGILRPYLSWTESLEPLQGAVAKFFSASCVPCIDRQAYPNLCQLCKGEGENQCACSSREPYFGYSGAFKCLQDGAGDVAFVKETTVFENLPEKADRDQYELLCLNNSRAPVDAFKECHLAQVPSHAVVARSVDGKEDLIWKLLSKAQEKFGKNKSRSFQLFGSPPGQRDLLFKDSALGFLRIPSKVDSALYLGSRYLTTLKNLRETAEEVKARYTRVVWCAVGPEEQKKCQQWSQQSGQNVTCATASTTDDCIVLVLKGEADALNLDGGYIYTAGKCGLVPVLAENRKSSKHSSLDCVLRPTEGYLAVAVVKKANEGLTWNSLKDKKSCHTAVDRTAGWNIPMGLIVNQTGSCAFDEFFSQSCAPGADPKSRLCALCAGDDQGLDKCVPNSKEKYYGYTGAFRCLAEDVGDVAFVKNDTVWENTNGESTADWAKNLNREDFRLLCLDGTRKPVTEAQSCHLAVAPNHAVVSRSDRAAHVKQVLLHQQALFGKNGKNCPDKFCLFKSETKNLLFNDNTECLAKLGGRPTYEEYLGTEYVTAIANLKKCSTSPLLEACAFLTR
inhibition rate (%) at 10^-4M inhibitor [1]: 100%
inhibition rate (%) at 10^-5M inhibitor [1]: 70%
inhibition rate (%) at 10^-6M inhibitor [1]: 10%
inhibition rate (%) at 10^-7M inhibitor [1]: 0%
inhibition rate (%) at 10^-8M inhibitor [1]: 0%
inhibition rate (%) at 10^-4M inhibitor [2]: 100%
inhibition rate (%) at 10^-5M inhibitor [2]: 100%
inhibition rate (%) at 10^-6M inhibitor [2]: 100%
inhibition rate (%) at 10^-7M inhibitor [2]: 20%
inhibition rate (%) at 10^-8M inhibitor [2]: 0%
inhibition rate (%) at 10^-4M inhibitor [3]: 100%
inhibition rate (%) at 10^-5M inhibitor [3]: 80%
inhibition rate (%) at 10^-6M inhibitor [3]: 15%
inhibition rate (%) at 10^-7M inhibitor [3]: 0%
inhibition rate (%) at 10^-8M inhibitor [3]: 0%
inhibition rate (%) at 10^-4M inhibitor [4]: 100%
inhibition rate (%) at 10^-5M inhibitor [4]: 100%
inhibition rate (%) at 10^-6M inhibitor [4]: 100%
inhibition rate (%) at 10^-7M inhibitor [4]: 40%
inhibition rate (%) at 10^-8M inhibitor [4]: 0%

B2: bovine transferrin (manufactured by Nihon Pharmaceutical Co., Ltd.) (other)
chain: DPERTVRWCTISTHEANKCASFRENVLRILESGPFVSCVKKTSHMDCIKAISNNEADAVTLDGGLVYEAGLKPNNLKPVVAEFHGTKDNPQTHYYAVAVVKKDTDFKLNELRGKKSCHTGLGRSAGWNIPMAKLYKELPDPQESIQRAAANFFSASCVPCADQSSFPKLCQLCAGKGTDKCACSNHEPYFGYSGAFKCLMEGAGDVAFVKHSTVFDNLPNPEDRKNYELLCGDNTRKSVDDYQECYLAMVPSHAVVARTVGGKEDVIWELLNHAQEHFGKDKPDNFQLFQSPHGKDLLFKDSADGFLKIPSKMDFELYLGYEYVTALQNLRESKPPDSSKDECMVKWCAIGHQERTKCDRWSGFSGGAIECETAENTEECIAKIMKGEADAMSLDGGYLYIAGKCGLVPVLAENYKTEGESCKNTPEKGYLAVAVVKTSDANINWNNLKDKKSCHTAVDRTAGWNIPMGLLYSKINNCKFDEFFSAGCAPGSPRNSSLCALCIGSEKGTGKECVPNSNERYYGYTGAFRCLVEKGDVAFVKDQTVIQNTDGNNNEAWAKNLKKENFEVLCKDGTRKPVTDAENCHLARGPNHAVVSRKDKATCVEKILNKQQDDFGKSVTDCTSNFCLFQSNSKDLLFRDDTKCLASIAKKTYDSYLGDDYVRAMTNLRQCSTSKLLEACTFHKP
inhibition of cysteine protease activity at 10^-4 M inhibitor [5]: > 30%
inhibition of cysteine protease activity at 10^-4 M inhibitor [6]: > 30%
inhibition of cysteine protease activity at 10^-4 M inhibitor [7]: 40%

YEKYLGPQYVAGITNLK [human lactoferrin peptide Y679-K695]
inhibition of cysteine protease activity at 10^-4 M inhibitor [6]: > 50%
inhibition of cysteine protease activity at 10^-4 M inhibitor [7]: > 50%
